These results are taken from patent publication US20240425603A1 (Janssen / Centocor, published 2024).

Assay [1] addresses T1, human VEGFR1, full length, over-expressed on cells (human, UniProt P17948 27-1338).
T1 construct: on CHO-K1 or HEK cells; also called hVEGFR1; CHOK1/ human VEGFR1
The assay is described as follows: flow cytometry, CHO-K1 cells stably expressing human VEGFR1. As for the experimental part: Full dose-response curves for binding of anti-VEGFR1 antibodies to VEGFR1 on cells were also generated. Parental CHO-K1 cells and CHO-K1 cells stably expressing human VEGFR1 (CHO-K1\hVEGFR1) were cultured in aMEM+10% FBS and aMEM+10% FBS containing 10 μg/mL Puromycin, respectively. CHOK1\hVEGFR1 were stained with CSFE as described above and parental CHO-K1 cells were left unstained. Cells were washed, combined (˜0.5×10⁶ cells/mL), and plated at ˜40,000 cells per well (75 μL/well). Serially diluted antibody samples were then added to the cells and incubated for 1 hour at 37° C. Cells were washed twice with stain buffer and then stained with AF647-conjugated secondary antibody for 30 min at 4° C. Plated cells were washed twice followed by the addition of read buffer containing Sytox Blue (1:1000) and read on an iQue flow cytometer. Data was fit to obtain EC₅₀ values (Table 22).
On the technique in general: In flow cytometry, cells or beads pass a laser one at a time.

Assay [2] concerns the target T2, human VEGFR2, over-expressed on HEK293 cells (human, UniProt P35968 20-1356).
T2 construct: whole, on cells; also called huVEGFR2; hVEGFR2
The assay can be described thus: flow cytometry, 10 nM antibody, HEK cells over-expressing human VEGFR2.

Assay [3] addresses T3, human VEGFR3, over-expressed on K562 cells (human, UniProt P35916 25-1363).
T3 construct: whole, on cells; also called huVEGFR3; hVEGFR3
The assay can be described thus: FACS cell binding (MFI) on K562 cells over-expressing human VEGFR3; expanded clone supernatant per paragraph 492, concentration not given. The method in brief:
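Binding was assessed by flow cytometry as mean fluorescence intensity, using culture supernatants of chicken-derived antibody clones expressed as scFv-Fc (human IgG1). The clones were produced by transient transfection and expanded to 6-well plates (2 mL). Receptor over-expressing cells were HEK cells for mouse VEGFR1 and human VEGFR2, and K562 cells for human VEGFR3.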

For assay [4], the target named is T4, Recombinant human VEGFR1-Fc (R&D Systems) (human, UniProt P17948 27-687, limits assumed).
T4 construct: bought; not shown: Fc part of the bought fusion, not described
The assay is described as follows: MSD ECL competition on plate-bound human VEGFR1-Fc; competitor biotin PlGF (2 nM). Put shortly: (§1)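 Half-log antibody dilutions were pre-incubated for 30 minutes with VEGFR1 (human or mouse Fc fusion, or His-tagged cyno; 0.5 ug/ml) that had been captured for 1 hour at room temperature on blocked MSD 384 plates coated with Protein A/G or anti-His mAb. Biotinylated VEGFA (0.2 nM) or PlGF (2 nM) was then added and bound ligand was read with Sulfo-tagged streptavidin on an MSD SECTOR S 600 imager. IC50 and maximal percent inhibition were calculated from the electro-chemiluminescence readings.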

Assay [5] deals with T5, Recombinant mouse VEGFR1-Fc (R&D Systems) (mouse, UniProt P35969 27-759, limits assumed).
T5 construct: bought; not shown: Fc part of the bought fusion, not described
T5 sequence (looked up): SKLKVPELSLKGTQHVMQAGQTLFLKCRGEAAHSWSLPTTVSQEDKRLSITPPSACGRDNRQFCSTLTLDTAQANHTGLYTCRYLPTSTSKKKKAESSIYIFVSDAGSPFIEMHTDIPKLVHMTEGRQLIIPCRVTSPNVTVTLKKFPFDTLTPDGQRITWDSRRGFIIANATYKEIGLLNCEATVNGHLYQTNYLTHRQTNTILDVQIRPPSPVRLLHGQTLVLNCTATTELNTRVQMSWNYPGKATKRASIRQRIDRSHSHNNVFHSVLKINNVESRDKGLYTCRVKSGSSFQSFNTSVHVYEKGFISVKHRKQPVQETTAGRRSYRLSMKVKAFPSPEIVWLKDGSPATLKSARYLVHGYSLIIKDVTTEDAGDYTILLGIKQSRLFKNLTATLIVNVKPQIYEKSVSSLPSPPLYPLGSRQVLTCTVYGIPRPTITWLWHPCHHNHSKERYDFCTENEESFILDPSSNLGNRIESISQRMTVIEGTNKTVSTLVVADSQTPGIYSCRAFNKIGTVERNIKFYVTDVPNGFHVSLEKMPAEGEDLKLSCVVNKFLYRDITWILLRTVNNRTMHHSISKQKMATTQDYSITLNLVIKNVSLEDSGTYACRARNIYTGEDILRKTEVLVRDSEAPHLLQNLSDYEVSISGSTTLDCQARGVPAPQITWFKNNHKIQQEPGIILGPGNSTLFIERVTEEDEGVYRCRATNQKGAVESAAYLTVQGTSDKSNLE
The assay can be described thus: MSD ECL competition on plate-bound mouse VEGFR1-Fc; competitor biotin PlGF (2 nM). The method in brief: as §1

Assay [6] addresses T6, mouse VEGFR1 (soluble antigen of the KinExA and SPR affinity assays) (mouse, UniProt P35969 23-759, limits assumed).
T6 sequence (looked up): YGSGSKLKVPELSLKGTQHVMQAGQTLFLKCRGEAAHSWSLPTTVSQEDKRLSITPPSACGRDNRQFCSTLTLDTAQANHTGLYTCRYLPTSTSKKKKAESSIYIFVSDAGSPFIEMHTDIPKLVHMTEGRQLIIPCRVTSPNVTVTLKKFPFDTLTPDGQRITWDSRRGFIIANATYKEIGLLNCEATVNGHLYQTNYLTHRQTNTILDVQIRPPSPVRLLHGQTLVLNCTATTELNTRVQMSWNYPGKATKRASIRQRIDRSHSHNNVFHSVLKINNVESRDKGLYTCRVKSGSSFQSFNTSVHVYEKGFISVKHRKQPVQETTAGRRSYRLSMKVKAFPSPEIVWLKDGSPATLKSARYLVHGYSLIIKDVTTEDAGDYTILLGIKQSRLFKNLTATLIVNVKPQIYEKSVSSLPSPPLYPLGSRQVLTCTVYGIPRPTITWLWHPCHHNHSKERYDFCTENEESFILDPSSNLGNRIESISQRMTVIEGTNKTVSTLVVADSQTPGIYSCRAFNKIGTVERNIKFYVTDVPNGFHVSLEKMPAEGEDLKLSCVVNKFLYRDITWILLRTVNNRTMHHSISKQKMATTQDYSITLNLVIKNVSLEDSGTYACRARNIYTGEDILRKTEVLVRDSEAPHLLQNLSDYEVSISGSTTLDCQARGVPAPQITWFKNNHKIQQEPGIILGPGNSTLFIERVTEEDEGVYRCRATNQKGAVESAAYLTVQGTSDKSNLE
The assay can be described thus: SPR. Background: SPR reads the build-up and loss of mass on a sensor chip optically.

“And” between values parts separate entries of the source, which are not always exact repeats. Equal values may be shown once.

T2 sequence (P35968 20-1356): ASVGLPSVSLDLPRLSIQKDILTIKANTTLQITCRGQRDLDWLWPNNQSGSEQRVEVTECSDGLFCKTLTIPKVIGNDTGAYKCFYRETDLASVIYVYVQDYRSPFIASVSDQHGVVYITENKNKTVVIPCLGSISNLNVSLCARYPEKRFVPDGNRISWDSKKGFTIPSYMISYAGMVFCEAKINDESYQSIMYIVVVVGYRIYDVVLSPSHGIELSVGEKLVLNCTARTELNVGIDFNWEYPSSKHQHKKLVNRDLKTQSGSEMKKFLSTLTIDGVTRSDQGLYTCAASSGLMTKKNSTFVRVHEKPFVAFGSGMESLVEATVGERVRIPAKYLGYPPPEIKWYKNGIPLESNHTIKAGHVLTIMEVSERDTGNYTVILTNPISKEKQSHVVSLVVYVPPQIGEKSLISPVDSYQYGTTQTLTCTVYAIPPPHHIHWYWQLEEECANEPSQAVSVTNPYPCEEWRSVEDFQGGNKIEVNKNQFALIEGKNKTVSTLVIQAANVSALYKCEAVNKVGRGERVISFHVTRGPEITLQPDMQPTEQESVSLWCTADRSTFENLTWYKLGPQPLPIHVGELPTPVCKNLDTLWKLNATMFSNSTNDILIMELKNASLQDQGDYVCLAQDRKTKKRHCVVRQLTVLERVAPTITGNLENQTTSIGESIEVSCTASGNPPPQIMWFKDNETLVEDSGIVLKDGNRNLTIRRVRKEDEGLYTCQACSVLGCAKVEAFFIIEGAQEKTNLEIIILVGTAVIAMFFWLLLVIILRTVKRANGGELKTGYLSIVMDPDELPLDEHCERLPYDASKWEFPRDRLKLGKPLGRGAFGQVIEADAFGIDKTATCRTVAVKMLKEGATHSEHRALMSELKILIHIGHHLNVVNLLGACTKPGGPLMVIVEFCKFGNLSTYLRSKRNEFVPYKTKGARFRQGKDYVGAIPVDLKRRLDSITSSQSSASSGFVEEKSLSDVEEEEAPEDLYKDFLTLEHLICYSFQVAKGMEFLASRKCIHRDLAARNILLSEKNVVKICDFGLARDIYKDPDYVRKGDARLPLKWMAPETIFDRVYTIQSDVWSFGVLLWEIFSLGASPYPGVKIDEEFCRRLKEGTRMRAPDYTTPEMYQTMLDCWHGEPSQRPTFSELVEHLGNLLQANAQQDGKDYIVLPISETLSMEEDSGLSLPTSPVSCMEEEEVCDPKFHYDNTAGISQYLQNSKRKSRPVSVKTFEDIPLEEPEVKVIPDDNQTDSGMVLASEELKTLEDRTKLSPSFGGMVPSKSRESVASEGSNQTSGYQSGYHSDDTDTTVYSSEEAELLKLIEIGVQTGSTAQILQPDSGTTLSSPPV
T4 sequence (P17948 27-687 limits assumed): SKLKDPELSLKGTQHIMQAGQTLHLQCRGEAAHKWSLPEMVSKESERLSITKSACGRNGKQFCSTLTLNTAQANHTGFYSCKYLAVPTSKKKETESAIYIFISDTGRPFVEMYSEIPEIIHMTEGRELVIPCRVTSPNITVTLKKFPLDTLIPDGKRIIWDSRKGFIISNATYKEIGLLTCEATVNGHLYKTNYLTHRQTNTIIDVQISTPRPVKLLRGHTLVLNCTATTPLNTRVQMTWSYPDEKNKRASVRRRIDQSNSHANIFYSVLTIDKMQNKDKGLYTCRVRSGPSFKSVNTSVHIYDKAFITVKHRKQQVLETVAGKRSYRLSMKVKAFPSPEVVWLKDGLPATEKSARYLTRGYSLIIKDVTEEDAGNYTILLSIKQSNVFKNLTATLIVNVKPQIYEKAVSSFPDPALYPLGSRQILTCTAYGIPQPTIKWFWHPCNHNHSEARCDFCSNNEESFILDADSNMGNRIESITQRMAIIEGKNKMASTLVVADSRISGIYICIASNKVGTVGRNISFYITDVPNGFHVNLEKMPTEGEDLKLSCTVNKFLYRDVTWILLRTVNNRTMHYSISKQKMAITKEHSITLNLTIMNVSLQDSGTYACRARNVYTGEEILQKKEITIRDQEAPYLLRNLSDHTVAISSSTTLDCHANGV
T3 sequence (P35916 25-1363): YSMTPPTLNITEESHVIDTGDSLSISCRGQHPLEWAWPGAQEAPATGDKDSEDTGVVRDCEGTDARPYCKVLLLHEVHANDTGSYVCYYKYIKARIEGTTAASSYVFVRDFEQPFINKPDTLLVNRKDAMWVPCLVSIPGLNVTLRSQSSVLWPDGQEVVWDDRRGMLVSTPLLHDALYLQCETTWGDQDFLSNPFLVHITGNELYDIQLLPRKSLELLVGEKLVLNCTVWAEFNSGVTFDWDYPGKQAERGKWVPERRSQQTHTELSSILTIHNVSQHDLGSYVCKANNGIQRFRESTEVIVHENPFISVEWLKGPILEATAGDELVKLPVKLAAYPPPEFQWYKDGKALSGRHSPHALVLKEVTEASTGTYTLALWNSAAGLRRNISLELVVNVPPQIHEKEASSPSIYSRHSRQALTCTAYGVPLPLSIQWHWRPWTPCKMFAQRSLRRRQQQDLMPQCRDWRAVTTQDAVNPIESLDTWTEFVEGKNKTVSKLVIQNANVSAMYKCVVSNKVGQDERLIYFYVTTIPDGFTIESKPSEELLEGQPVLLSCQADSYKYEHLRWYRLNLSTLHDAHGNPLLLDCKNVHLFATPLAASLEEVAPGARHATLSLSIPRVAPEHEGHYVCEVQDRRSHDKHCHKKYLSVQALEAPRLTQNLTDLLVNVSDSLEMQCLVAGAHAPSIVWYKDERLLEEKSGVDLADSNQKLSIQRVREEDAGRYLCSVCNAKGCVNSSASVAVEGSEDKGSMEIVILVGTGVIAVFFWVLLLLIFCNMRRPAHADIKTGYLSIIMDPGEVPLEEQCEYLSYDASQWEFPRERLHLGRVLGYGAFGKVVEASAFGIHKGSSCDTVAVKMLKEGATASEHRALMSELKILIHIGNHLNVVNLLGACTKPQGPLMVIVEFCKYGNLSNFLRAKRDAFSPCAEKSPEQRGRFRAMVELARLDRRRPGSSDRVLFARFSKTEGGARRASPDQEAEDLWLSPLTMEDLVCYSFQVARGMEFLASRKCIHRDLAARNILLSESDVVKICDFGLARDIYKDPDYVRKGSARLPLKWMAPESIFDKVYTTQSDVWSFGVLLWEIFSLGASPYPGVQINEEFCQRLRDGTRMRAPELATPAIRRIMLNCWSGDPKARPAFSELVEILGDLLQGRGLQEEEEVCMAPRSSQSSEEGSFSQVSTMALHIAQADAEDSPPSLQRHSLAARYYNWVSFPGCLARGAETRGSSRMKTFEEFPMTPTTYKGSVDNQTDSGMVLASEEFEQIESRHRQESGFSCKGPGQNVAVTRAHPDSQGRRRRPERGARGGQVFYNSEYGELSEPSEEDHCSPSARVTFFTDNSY

B1: VGFB71 (antibody, human IgG1, lambda, L234A L235A, V domains shown)
VH: EVQLLESGGGLVQPGGSLRLSCEASGFIFRDYNMNWVRQAPGKGLEWVSIITNDGSSTAYSDSVKGRFTISRDNSKNSLYLQMNSLRAEDTAIYYCVKVYYGMDDWGQGTTVTVSS
VL: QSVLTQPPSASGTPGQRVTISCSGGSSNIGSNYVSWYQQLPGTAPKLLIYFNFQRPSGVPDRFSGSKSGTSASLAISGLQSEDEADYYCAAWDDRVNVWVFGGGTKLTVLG
notes: human IgG1 (L234A/L235A/D265S)
Regarding B1, in assay [1], it took 0.11 nM to reach a half-maximal effect (EC50). Besides, the “Geomean over-expressing/Geomean parental (Fold Signal/Background)” value in assay [2] worked out at 1.27 fold. The binding result in assay [3] is on record as “no binding”.

B2: VGFB78 (antibody, human IgG1, lambda, L234A L235A, V domains shown)
VH: EVQLLESGGGLVQPGGSLRLSCAASSFTFYNYDMTWVRQAPGKGLEWVAGIGTSGTDMYYADSVKGRFTISRDNSKNTLYLQMNSLRAEDTAIYYCAKDYYYYGMDVWGLGTTVTVSS
VL: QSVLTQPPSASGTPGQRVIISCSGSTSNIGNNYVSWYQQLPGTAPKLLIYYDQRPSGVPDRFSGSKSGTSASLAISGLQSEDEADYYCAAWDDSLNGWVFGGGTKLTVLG
notes: as for B1
As for B2, in assay [4], the IC50 – broadly, the concentration that inhibits the measured activity by half – was 0.335 nM and the “Max % Inh.” value is 100%. For the same molecule, the EC50 (in general, the midpoint of the concentration-response curve) in assay [1] worked out at 0.473 nM. Besides, in assay [2], the “Geomean over-expressing/Geomean parental (Fold Signal/Background)” value amounted to 1.75 fold. Besides, in assay [5], the IC50 was determined as 0.243 nM and the “Max % Inh.” value stood at 100%. The Kd (commonly the free concentration of one partner at which half of the binding sites on the other are occupied at equilibrium, for simple one-to-one binding) in assay [6] is 0.004 nM and < 0.006 nM. In addition, the binding result in assay [3] is recorded as “no binding”.

B3: VGFB54 (antibody, human IgG1, lambda, L234A L235A, V domains shown)
VH: EVQLLESGGGSVQPGGSLRLSCTASGFNFEDYGMNWVRQAPGKGLDWVSSINRNGDISTYHVDSVKGRFTISRDNSKNTLYLQMNSLRAEDTAIYYCTKNHDYHGMDVWGQGTTVTVSS
VL: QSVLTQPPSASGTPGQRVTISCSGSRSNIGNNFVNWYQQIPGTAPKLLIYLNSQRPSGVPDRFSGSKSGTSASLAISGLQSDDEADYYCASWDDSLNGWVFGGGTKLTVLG
notes: human IgG1 (L234A/L235A/D265S), lambda, 2H:2L; from OmniChicken
With B3, in assay [4], the IC50 was found to be 0.159 nM and the “Max % Inh.” value worked out at 100%. The molecule further displayed an EC50 in assay [1] of 0.101 nM. Further, the “Geomean over-expressing/Geomean parental (Fold Signal/Background)” value in assay [2] turned out to be 1.52 fold. In addition, in assay [5], the IC50 amounted to 0.24 nM and the “Max % Inh.” value came to 98.4%. Further, the Kd in assay [6] stood at 5.3 nM. Besides, in assay [3], the binding result was “no binding”.

B4: VGFB82 (antibody, human IgG1, lambda, L234A L235A, V domains shown)
VH: EVQLLESGGGLVQPGGSLRLSCEASGFDFSTYAMNWVRQAPGKGLEWVATINSEGTITSHAPAVKGRFTISRDNSKNTAYVQMNSLRAEDSAVYYCSSTTGTTHGMDVWGRGTTVTVSS
VL: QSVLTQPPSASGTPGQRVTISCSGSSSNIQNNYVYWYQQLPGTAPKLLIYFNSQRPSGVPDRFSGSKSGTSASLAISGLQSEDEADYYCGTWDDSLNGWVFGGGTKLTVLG
notes: as for B1
For B4, in assay [4], the IC50 came to 0.183 nM and the “Max % Inh.” value is 100%. In assay [1], this molecule gave an EC50 of 0.136 nM. The “Geomean over-expressing/Geomean parental (Fold Signal/Background)” value in assay [2] stood at 1.34 fold. Further, in assay [5], the IC50 was determined as 0.221 nM and the “Max % Inh.” value stood at 100%. For the same molecule, in assay [6], the affinity, expressed as Kd, was 0.01 nM. The binding result in assay [3] was “no binding”.
